The values below come from publication PMC8976717 (The Plant journal : for cell and molecular biology, 2021).

The data set deals with the molecule itself. In words: non-reducing SDS-PAGE.

B1: GAUT1Δ167 (Arabidopsis GALACTURONOSYLTRANSFERASE 1, truncated at the in vivo cleavage site between residues 167 and 168) (enzyme, Arabidopsis thaliana, UniProt Q9LE59 168-673, looked up)
chain: RANELVQHNDDTILKLENAAIERSKSVDSAVLGKYSIWRRENENDNSDSNIRLMRDQVIMARVYSGIAKLKNKNDLLQELQARLKDSQRVLGEATSDADLPRSAHEKLRAMGQVLAKAKMQLYDCKLVTGKLRAMLQTADEQVRSLKKQSTFLAQLAAKTIPNPIHCLSMRLTIDYYLLSPEKRKFPRSENLENPNLYHYALFSDNVLAASVVVNSTIMNAKDPSKHVFHLVTDKLNFGAMNMWFLLNPPGKATIHVENVDEFKWLNSSYCPVLRQLESAAMREYYFKADHPTSGSSNLKYRNPKYLSMLNHLRFYLPEVYPKLNKILFLDDDIIVQKDLTPLWEVNLNGKVNGAVETCGESFHRFDKYLNFSNPHIARNFNPNACGWAYGMNMFDLKEWKKRDITGIYHKWQNMNENRTLWKLGTLPPGLITFYGLTHPLNKAWHVLGLGYNPSIDKKDIENAAVVHYNGNMKPWLELAMSKYRPYWTKYIKFDHPYLRRCNLHE
Turning to B1, the binding result is “binds”.
